Test results taken from patent US20120071629A1, “APPOPTOSIN AND USES THEREOF FOR TREATING NEURODEGENERATIVE DISEASE AND CANCER” (Tsinghua University, priority 2006, published 2012).

Columns and labels:
N2a cells = test: BH3I- and staurosporine-induced caspase 3 cleavage/activation; assay type: cell-based
Protocol: N2a cells were first subjected to downregulation of 168 by RNAi, and were then treated with apoptotic reagents BH3I and staurosporine. […] In addition, 168 is subjected to cleavage under apoptotic treatments (indicated by *).

APP-AICD (AID) = target: T1, APP-AICD (AID) (Homo sapiens, UniProt P05067); test: Yeast two-hybrid assay with quantitative β-galactosidase activity; assay type: binding; conditions: yeast AH109 co-transfected with pGBKT7-AID; ONPG substrate
T1 construct: The intracellular end of human APP was amplified, i.e., AID, was amplified; expressed in transfected cells; host or cells: yeast AH109
From the text: The interaction of AICD-Ga14 activation domain (AD) with 168(264-304) fragment-DNA binding domain (DBD) activates GAL4-driven beta-galactosidase expression in yeast.
The intracellular end of human APP was amplified, i.e., AID, was amplified. In order to completely expose AID, 5 amino acids of Aβ and […] (SEQ ID NO:9) were extended in front of AID. The PCR product was recovered and purified. It was then inserted into protein expression vector pGBKT7 for identification by means of sequencing. The successfully constructed vector is named pGBKT7-AID. Positively identified pGBKT7-AID was transferred into yeast AH109, and then cultured on a SD/-Trp plate. […]
Screening and Identification of Positive Clones: Yeast expression vector pGBKT7 contained the autocrine gene of Trp (tryptophan) and the DNA binding domain of GAL4. pACT2 contained the autocrine gene of Leu (leucine) and the DNA activation structure domain. […] The results were compared and analyzed against information available in GenBank.
Quantitative Analysis of β-galactosidase Activity: Yeast co-transfected positive clones grown on the plate were picked and cultured further in a SD/Leu/-Trp liquid culture medium at 30° C. overnight. […] The solution was centrifuged and the supernatant was taken to measure its absorbance at 420 nm to calculate its β-galactosidase activity. […]

APP = target: T2, APP (Homo sapiens, UniProt P05067); test: Anti-APP (369) IP and anti-myc Western blot in co-transfected 293T cells; assay type: binding; conditions: myc-168 or deletion mutants co-transfected with APP into 293T cells
T2 construct: expressed in transfected cells; host or cells: 293T cells
From the text: Protein expressions are shown in the middle and lower panels.
Deletion mutants of myc-168 and APP were co-transfected into 293T cells and cell lysates subjected to anti-APP (369) IP and anti-myc WB to detect 168-APP interaction (upper panel).

APP-AICD(C99) = target: T3, APP-AICD(C99) (Homo sapiens, UniProt P05067); test: Anti-myc IP and anti-HA Western blot in co-transfected 293T cells; assay type: binding
T3 construct: Deletion mutants of HA-168 and myc-tagged APP-AICD(C99) were co-transfected into 293T cells; myc; expressed in transfected cells; host or cells: 293T cells
From the text: IP-WB the minimal domain of 168 to interact with AICD is 118-264AA. Deletion mutants of HA-168 and myc-tagged APP-AICD(C99) were co-transfected into 293T cells and cell lysates subjected to anti-myc IP and anti-HA WB to detect 168-APP interaction (upper panel). Protein expressions are shown in the middle and lower panels.

239T cells = test: Apoptosis by annexin V/PI double staining after 168 expression; assay type: cell-based
293T cells = test: Cytochrome c release from mitochondria, immunoblotting of mitochondria and cytosol; assay type: cell-based; conditions: 293T cells transfected with 168
From the text: Mitochrondia and cytosol were isolated from 293T cells transfected with 168 and subjected to immunoblotting with different antibodies: Tubulin serves as a cytosol marker and CoxIV as a mitochondrial marker.

[1] = test system: mitochondrial membrane potential; test: Mitochondrial membrane potential after 168 expression; assay type: cell-based
From the text: MCCP: an ionophore to disrupt proton gradient used as a positive control to decrease mitochondrial membrane potential.

[2] = test system: N2a cells stably expressing human APP695; test: Aβ generation and APP metabolism, IP and Western blot; assay type: cell-based
From the text: (§1) N2a cells stably expressing human APP695 were transfected with NotchΔE-myc(Notch lacking its ectodomain and carrying a myc tag at its C-terminus) for 1 day. Cells were split equally and transfected with 168 with different dosage for 2 days. Conditional media were collected for sAPPα and secretary Aβ assays. Cells were lysed in 6% SDS and assayed for Notch/NICD conversion and APP metabolism. 168/FLJ20551 and Notch/NICD were detected using myc antibody 9E10. APP AICD was detected using APP C-terminus antibody 369. APP βCTFs, intracellular Aβ, and secretary Aβ in conditional media were immunoprecipitated using antibody 4G8 and detected using antibody 6E10. Soluble APPα were detected using 6E10. α-tubulin was used as control.

Notch = test: Notch/NICD conversion, Western blot; assay type: cell-based; conditions: overexpression of 168; NotchΔE-myc transfected N2a cells; ratios of NICD to Notch
From the text: as §1

[3] = test system: N2a cells stably expressing human APP Swedish mutations; test: Aβ40 generation, IP and urea gel; assay type: cell-based; conditions: overexpression of 168, 2 days, secreted Aβ in conditional media
Protocol: N2a cells stably expressing human APP Swedish mutations were transfected with 168 for 2 days. Secretary Aβ in conditional media were immunoprecipitated using antibody 4G8 and detected using antibody 6E10. The samples were analyzed using Urea gel, which can differentiate variant Aβ species.

mouse fibroblast cells = test: 168-mediated apoptosis in APP WT and APP/APLP2 DKO cells, annexin V/PI double staining; assay type: cell-based; conditions: mouse fibroblast cells transfected with 168
From the text: APP wild type (WT) and APP/APLP2 double knockout (DKO) mouse fibroblast cells were transfected with control (vector) or 168.

CN[C@@H]1C[C@H]2O[C@@](C)([C@@H]1OC)n1c3ccccc3c3c4c(c5c6ccccc6n2c5c31)C(=O)NC4 [staurosporine]
caspase 3 cleavage for activation upon apoptotic treatment (N2a cells): cleaved

B1: 168: Appoptosin polypeptide; human amino acid sequence SEQ ID NO:2; expressed in cells by transfection (protein)
chain: MIQNSRPSLLQPQDVGDTVETLMLHPVIKAFLCGSISGTCSTLLFQPLDLLKTRLQTLQPSDHGSRRVGMLAVLLKVVRTESLLGLWKGMSPSIVRCVPGVGIYFGTLYSLKQYFLRGHPPTALESVMLGVGSRSVAGVCMSPITVIKTRYESGKYGYESIYAALRSIYHSEGHRGLFSGLTATLLRDAPFSGIYLMFYNQTKNIVPHDQVDATLIPITNFSCGIFAGILASLVTQPAGVIKTHMQLYPLKFQWIGQAVTLIFKDYGLRGFFQGGIPRALRRTLMAAMAWTVYEEMMAKMGLKS
modifications: Description of Artficial Sequence note = synthetic construct
notes: Appoptosin polypeptide; expressed in cells by transfection
intensity of interaction with AID (bait protein) by β-galactosidase activity (APP-AICD (AID)): fairly intense
interaction with APP in IP-WB (APP): interacts
interaction with APP-AICD(C99) in cells (APP-AICD(C99); HA-168 deletion mutants and myc-tagged C99 co-transfected into 293T cells): interacts
minimal domain of 168 to interact with AICD (APP-AICD(C99); IP-WB): 118-264AA
apoptosis (239T cells): induces apoptosis
cytochrome c release from mitochondria (293T cells): induces cytochrome c release
mitochondrial membrane potential [1]: decrease
sAPPα ([2]; overexpression of 168, conditional media): slightly increases
Aβ generation ([2]; overexpression of 168, different dosage, 2 days): inhibits Aβ generation in a dose-dependent manner
conversion of Notch to NICD (Notch): does not affect
Aβ40 generation [3]: reduces Aβ40 generation in a dose-dependent manner
168-induced cell apoptosis in APP/APLP2 DKO cells compared with APP WT cells (mouse fibroblast cells): dramatically less

B2: 118-304AA: deletion mutant of myc-168, amino acids 118-304 (protein)
chain: GHPPTALESVMLGVGSRSVAGVCMSPITVIKTRYESGKYGYESIYAALRSIYHSEGHRGLFSGLTATLLRDAPFSGIYLMFYNQTKNIVPHDQVDATLIPITNFSCGIFAGILASLVTQPAGVIKTHMQLYPLKFQWIGQAVTLIFKDYGLRGFFQGGIPRALRRTLMAAMAWTVYEEMMAKMGLKS
modifications: left off: small tags and cut ends
interaction with APP in IP-WB (APP): still detected
